# Results: US20040086966A1 (EUROSCREEN S A, published 2004)
# No end group written: not given here.
# T1: human ChemerinR (human, UniProt Q99788 3-373)
# T1 sequence: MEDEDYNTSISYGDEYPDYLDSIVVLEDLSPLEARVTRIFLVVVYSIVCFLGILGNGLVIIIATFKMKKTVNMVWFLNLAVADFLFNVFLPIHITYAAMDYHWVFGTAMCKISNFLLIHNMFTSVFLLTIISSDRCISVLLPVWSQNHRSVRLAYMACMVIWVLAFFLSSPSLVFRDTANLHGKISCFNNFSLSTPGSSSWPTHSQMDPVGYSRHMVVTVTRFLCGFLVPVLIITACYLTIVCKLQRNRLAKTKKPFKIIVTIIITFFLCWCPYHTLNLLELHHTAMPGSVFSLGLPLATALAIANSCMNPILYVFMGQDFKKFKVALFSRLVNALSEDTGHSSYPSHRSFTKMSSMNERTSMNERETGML
# B1: YHSFFFPGQFAFS peptide (unlabeled) (peptide)
# peptide: YHSFFFPGQFAFS
# notes: also called unlabeled peptide; unlabel peptide
# B2: human Prochemerin (recombinant, unprocessed) (ligand)
# chain: ELTEAQRRGLQVALEEFHKHPPVQWAFQETSVESAVDTPFPAGIFVRLEFKLQQTSCRKRDWKKPECKVRPNGRKRKCLACIKLGSEDKVLGRLVHCPIETQVLREAEEHQETQCLRVQRAGEDPHSFYFPGQFAFSKALPRS
# Molecular target: T1, human ChemerinR
# Assay: cell-based or functional assay
row,Binder,"Mean EC50, intracellular calcium release (aequorin assay) [nM]"
1,YFPGQFAAS [Human [Ala-8]Chemerin-9],38000
2,QRAGEDPHSFYFPGQFAF [Human [delta-Ser19]Chemerin-19],97
3,QRAGEDPHSFYFPGQFAFSK [Human [Lys20]Chemerin-19],170000
4,AFPGQFAFS [Human [Ala-1]Chemerin-9],496
5,HSFYFPGQFAFS [Human Chemerin-12],12.2
6,QRAGEDPHSFYFPGQFA [Human [delta-Phe18Ser19]Chemerin-19],220000
7,QRAGEDPHSFYFPGQF [Human [delta-Ala17Phe18Ser19]Chemerin-19],130000
8,QRAGEDPHSFYFPGQFAFS [Human Chemerin-19],16.7
9,YAPGQFAFS [Human [Ala-2]Chemerin-9],155
10,YFPGQAAFS [Human [Ala-6]Chemerin-9],5000
11,FYFPGQFAFS [Human Chemerin-10],8.2
12,FPGQFAFS [Human Chemerin-8],2000
13,PGQFAFS [Human Chemerin-7],220000
14,PHSFYFPGQFAFS (not fully specified) [Human Chemerin-13],14
15,QRAGEDPHSFYFPGQFAFSKALPRS [Human prochemerin-25],160000

# Molecular target: T1, human ChemerinR
# Assay: cell-based or functional assay
# Remark: another data set of the same source
Binder,"EC50, aequorin-based assay [nM]","EC50, biological activity on CHO-K1 cells expressing human ChemerinR (aequorin assay) [nM]"
B1,28,
B2,,393

# Molecular target: T1, human ChemerinR
# Assay: competition binding on ChemerinR-expressing CHO-K1 cells, tracer 125I-…, one-site model, 3 experiments
# Protocol: (§1) ChemerinR expressing CHO-K1 cells were collected from plates with PBS supplemented with 5 mM EDTA, gently pelleted for 2 min at 1000×g, and resuspended in binding buffer (50 mM HEPES, pH 7.4, 1 mM CaCl₂, 5 mM MgCl₂, 0.5% BSA). […] Filters were counted in a […]-scintillation counter. Binding parameters were determined with the PRISM software (Graphpad Software) using nonlinear regression applied to a one-site competition model.
Binder,Ki [nM],pKi
B1,12.1,7.95

# Molecular target: T1, human ChemerinR
# Assay: competition binding on ChemerinR-expressing CHO-K1 cells; tracer (competed ligand) 125I-…
# Protocol: as §1
row,Binder,IC50 (read off the curve) [nM]
1,B1,~20
